B1: AP1C3 (VHH)
VHH: EVQLQASGGGFVQPGGSLRLSCAASGRTYRGYSMGWFRQAPGKEREFVSAISSWSDDWTAYADSVKGRFTISRDNSKNTVYLQMNSLRAEDTATYYCAWQYIDEIQYYWGQGTQVTVSS
B2: AP1A5 (Fc fusion)
chain: EVQLQASGGGFVQPGGSLRLSCAASGSTASHYTMGWFRQAPGKEREFVSAISSGRDHAKQYADSVKGRFTISRDNSKNTVYLQMNSLRAEDTATYYCAYEEINATQKDTLYWGQGTQVTVSS
B3: AP1D4 (Fc fusion)
chain: EVQLQASGGGFVQPGGSLRLSCAASGHTFDAHRMGWFRQAPGKEREFVSAISSWGQSSTYYADSVKGRFTISRDNSKNTVYLQMNSLRAEDTATYYCAQTDEGNQYVYWGQGTQVTVSS
B4: BP2A6 (VHH)
VHH: EVQLQASGGGFVQPGGSLRLSCAASGQTFSHYIMGWFRQAPGKEREFVSAISAGQGHATYYADSVKGRFTISRDNSKNTVYLQMNSLRAEDTATYYCAKYQDTIAPLYWGQGTQVTVSS
B5: DP4F2 (VHH)
VHH: EVQLQASGGGFVQPGGSLRLSCAASGTTYSERVMGWFRQAPGKEREFVSAISSGQSDQTYYADSVKGRFTISRDNSKNTVYLQMNSLRAEDTATYYCAPFAGDANLPREWYWGQGTQVTVSS

The binders below were run against WT SARS-CoV-2 RBD (SARS-CoV-2, UniProt P0DTC2 14-1211) (assay: ELISA).
For B1, the Kd was 0.08 nM.
Binder B2 has a Kd of 1.19 nM.
In the case of B3, the Kd is reported as 0.97 nM.
In the case of B4, the Kd is reported as 0.06 nM.
For B5, the Kd was 10.7 nM.

From PMC11793827 (2025)
